Assay results reported in US6541254B1, “Glycosylation variants of iduronate 2-sulfatase” (Women's and Children's Hospital, priority 1991, dated 2003).

B1: rIDS: Recombinant human iduronate 2-sulfatase, highly glycosylated, secreted by CHO-K1 clonal line CHOEFI2S-9 (protein)
chain: SETQANSTTDALNVLLIIVDDLRPSLGCYGDKLVRSPNIDQLASHSLLFQNAFAQQAVCAPSRVSFLTGRRPDTTRLYDFNSYWRVHAGNFSTIPQYFKENGYVTMSVGKVFHPGISSNHTDDSPYSWSFPPYHPSSEKYENTKTCRGPDGELHANLLCPVDVLDVPEGTLPDKQSTEQAIQLLEKMKTSASPFFLAVGYHKPHIPFRYPKEFQKLYPLENITLAPDPEVPDGLPPVAYNPWMDIRQREDVQALNISVPYGPIPVDFQRKIRQSYFASVSYLDTQVGRLLSALDDLQLANSTIIAFTSDHGWALGEHGEWAKYSNFDVATHVPLIFYVPGRTASLPEAGEKLFPYLDPFDSASQLMEPGRQSMDLVELVSLFPTLAGLAGLQVPPRCPVPSFHVELCREGKNLLKHFRFRDLEEDPYLPGNPRELIAYSQYPRPSDIPQWNSDKPSLKDIKIMGYSIRTIDYRYTVWVGFNPDEFLANFSDIHAGELYFVDSDPLQDHNMYNDSQGGDLFQLLMP
B2: Liver IDS: Naturally glycosylated mature iduronate 2-sulfatase purified from human liver (protein, UniProt P22304 34-455; P22304 456-550, looked up)
Iduronate 2-sulfatase 42 kDa …: TDALNVLLIIVDDLRPSLGCYGDKLVRSPNIDQLASHSLLFQNAFAQQAVCAPSRVSFLTGRRPDTTRLYDFNSYWRVHAGNFSTIPQYFKENGYVTMSVGKVFHPGISSNHTDDSPYSWSFPPYHPSSEKYENTKTCRGPDGELHANLLCPVDVLDVPEGTLPDKQSTEQAIQLLEKMKTSASPFFLAVGYHKPHIPFRYPKEFQKLYPLENITLAPDPEVPDGLPPVAYNPWMDIRQREDVQALNISVPYGPIPVDFQRKIRQSYFASVSYLDTQVGRLLSALDDLQLANSTIIAFTSDHGWALGEHGEWAKYSNFDVATHVPLIFYVPGRTASLPEAGEKLFPYLDPFDSASQLMEPGRQSMDLVELVSLFPTLAGLAGLQVPPRCPVPSFHVELCREGKNLLKHFRFRDLEEDPYLPG
Iduronate 2-sulfatase 14 kDa …: NPRELIAYSQYPRPSDIPQWNSDKPSLKDIKIMGYSIRTIDYRYTVWVGFNPDEFLANFSDIHAGELYFVDSDPLQDHNMYNDSQGGDLFQLLMP
modifications: natural glycosylation, liver-purified
notes: Naturally glycosylated mature iduronate 2-sulfatase purified from human liver

Legend:
[1] = Catalytic properties of IDS with radiolabelled disaccharide substrate; type: biochemical; details: for Specific Activity / pH Optimum: IdoA2S-anM6S substrate; for Km / Vmax: IdoA2S-anM6S, 50 mM sodium acetate pH 4.5, 500 μg/ml BSA
Experimental: (§1) Media samples, or cell lysates prepared by six cycles of freeze/thaw in 0.5 M-NaCl/20 mM-Tris/HCl, pH 7.0, were clarified by microcentrifugation (12,000×g, 4° C., 5 min) and were either assayed directly or after dilution in assay buffer. […] IDS was assayed using the radiolabelled disaccharide substrate IdoA2S-anM6S (3). Protein estimations were according to the method of Lowry et al (29).
(§2) The rIDS was purified from the collected medium by a 3-step column procedure. The medium was dialysed overnight at 4° C. against 30 mM-Tris/HCl, pH 7.0/10% v/v glycerol/0.1 mM-DTE/3 mM-NaN3 (buffer A) and was applied to a PBE94 column (8 cm×1.5 cm) equilibrated in buffer A (flow-rate 1.0 ml/min) and then washed with 100 ml of buffer A. Bound proteins were […] with polybuffer 74 that had been diltured 1:18 with water, the pH adjusted to 4.0 with HCl and the solution made 10% v/v in glycerol, 0.1 mM-DTE and 3 mM-NaN3. The column was further eluted with 100 ml 15 mM-ditheriothreitol/3 mM-NaN3 (buffer B). The rIDS eluted in buffer B was applied at a flow-rate of 1.0 ml/min to a Blue A agarose column (6 cm×0.7 cm) also equilibrated in buffer B. The rIDS activity from this step was applied in 1.0 ml volumes to an LKB Ultrachrom GTi f.p.l.c. system with a TSK G3000SW Ultrapac column (30 cm×0.8 cm) equilibrated and eluted in buffer B at a flow-rate of 0.5 ml/min and pressure of 150 kPa. Fractions containing rIDS activity were pooled and analysed under denaturing and non-denaturing condition on SDS-PAGE (10% w/v acrylamide) to estimate apparent subunit size. Gels were stained with either Gradipure Colloidal Electrophoresis Gel Stain (Gradipure, Pyrmont, NSW) or silver stained accordinng to the method of Merril et al (32). Native molecular mass was determined using the f.p.l.c. system as described elsewhere (3) Kinetic (Km, V max, pH optima) and inhibition data were obtained as previously described (3).
Although both the liver and rIDS show a similar Km towards the disaccharide substrate (IdoA2S-anM6S) in the standard assay (50 mM sodium acetate pH 4.5 and 500 μg/ml BSA) they have a substantially different V max. […] Alternatively, this may reflect a difference between enzyme produced in CHO cells and in liver. Both the (CHO) recombinant and (liver) mature form of the enzyme have similar pH optima and specific activities (Table 2).

[2] = test system: MPS II fibroblasts (SF-635 and SF-1779); assay: Correction of MPS II fibroblasts by rIDS; type: cell-based, human; details: for 35S-cpm/mg Cell Protein / β-Hexosaminidase activity in cell lysate / IDS activity in cell lysate: 5 × 10^4 pmol/min per ml rIDS, 72 hours; for IDS activity in cell lysate: undialysed lysate
Experimental: Human diploid fibroblasts were established from skin biopsies submitted to this hosptial for diagnosis (28). Cell lines were maintained according to established procedures in BME, 10% v/v FCS and antibiotics unless otherwise stated. The two MPS II skin fibroblast cell lines used in this study (SF-635 and SF-1779) both have low residual IDS activity.
as §1
The fluorogenic substrate 4-methylumbelliferyl-2-acetamido-2-deoxy-β-D-glucopyranoside was used to measure β-hexosaminidase activity (31).
For these experiments IDS was obtained from CHOEFI2S-9 cells cultured in CHO-SFM medium suppplemented with 10 mM-NH4C1 and antibiotics. […] Fibroblasts from a normal individual (SF-3409) and from two MPS II patients (SF-635 and SF-1779) were grown to confluency in 25 cm^2 flasks and radiolabelled with Na2^35SO4 as previously described (27). The labelled cells were then exposed to 5×10^4 pmol/min per ml of rIDS for 72 hours. After harvesting the cells by trypsin treatment and washing by centrifugation/resuspension in PBS, the cell pellet was resuspended in 100 μl of 20 mM-Tris/HCl, pH 7.0/0.5 M-NaCl, and the cell lysates prepared as described above. The cell extracts were analysed for IDS activity, total protein, β-hexosaminidase activity and radioactivity.

[3] = test system: MPS II cells (SF-1779); assay: Endocytosis of rIDS with or without mannose-6-phosphate; type: cell-based, human; details: rIDS at 5×10^4 and 5×10^3 pmol/min per ml, 5 mM mannose-6-phosphate
Experimental: Cells from SF-1779 were plated in 20 wells (3.83 cm^2) and allowed to reach confluency. Wells 1 to 4 were untreated controls. To each of wells 5 to 12 and 13 to 20 was added 1.0 ml of medium containing rIDS at 5×10^4 pmol/min per ml and 5×10^3 pmol/min per ml respectively. In addition the medium in wells 9 to 12 and 17 to 20 was made 5 mM mannose-6-phosphate. The cells were then incubated for 6 hours after which time they were rinsed with medium and fresh medium added. The cells were incubated overnight and then harvested, washed and lysed as described above. The cell lysates were dialysed against 5 mM-sodium acetate, pH 4.0, for 16 h at 4° C. and then analysed for IDS activity and total protein.

[4] = test system: MPS II skin fibroblasts (SF-635); assay: Subcellular fractionation of rIDS-treated cells on Percoll density gradients; type: cell-based, human; details: corrected MPS II cells; Percoll gradient of post-nuclear supernatant
Experimental: Cells from SF-635 were grown to confluency in 75 cm^2 flasks and then exposed to medium supplemented with 5×10^4 pmol/min per ml rIDS. The cells were incubated for 72 h then harvested and fractionated on Percoll density gradients as described in Anson el al (27). The resulting gradient was collected in 1.0 ml fractions by bottom puncture and the fractions analysed for IDS and β-hexosaminidase activity.

[5] = Chromatofocusing on PBE94; type: physicochemical; details: majority of rIDS (pool B)
Experimental: as §2, with “Gels were stained with either Gradipure Colloidal Electrophoresis Gel Stain (Gradipure, Pyrmont, NSW) or silver stained accordinng to the method of Merril et al (32).” left out

| Effect on activity of second lysosomal enzyme β-hexosaminidase ([2]; endocytosis of IDS in MPS II fibroblasts) | Molecule | Specific Activity [1] | pH Optimum [1] | Km [1] | Vmax [1] | Clearance of stored 35S-labelled material ([2]; MPS II fibroblasts, rIDS at 5×10^4 pmol/min per ml) | IDS activity level above normal ([2]; SF635, rIDS at 5×10^4 pmol/min per ml) | IDS activity level above normal ([2]; SF1779, rIDS at 5×10^4 pmol/min per ml) | 35S-cpm/mg Cell Protein ([2]; SF-635 cells labelled with Na2 35SO4) | β-Hexosaminidase activity in cell lysate ([2]; SF-635 cells) | IDS activity in cell lysate ([2]; SF-635 cells) | 35S-cpm/mg Cell Protein ([2]; SF-1779 cells labelled with Na2 35SO4) | β-Hexosaminidase activity in cell lysate ([2]; SF-1779 cells) | IDS activity in cell lysate ([2]; SF-1779 cells) | Uptake of IDS activity in presence or absence of mannose-6-phosphate [3] | Subcellular localisation of endocytosed enzyme [4] | pI [5] |
| --- | --- | --- | --- | --- | --- | --- | --- | --- | --- | --- | --- | --- | --- | --- | --- | --- | --- |
| not affected | B1 | 20.8 μmol/min per mg | 4.5 | 3 µM | 3.35 μmol/min per mg | clearance of this stored product to levels comparable to those seen in control fibroblasts | 80 fold | 40 fold | 9018 ± 1988 cpm/mg | 257 ± 14 nmol/min per mg | 1140 ± 50 pmol/min per mg | 5136 ± 502 cpm/mg | 118 ± 11 nmol/min per mg | 562 ± 99 pmol/min per mg | uptake is mediated via the mannose-6-phosphate receptor | fractionated with the lysosomal enzyme β-hexosaminidase in the dense fraction of the gradient | < 4.0 |
|  | B2 | 11.9 μmol/min per mg | 4.5 | 4 µM | 80 μmol/min per mg |  |  |  |  |  |  |  |  |  |  |  |  |
